Patent publication US20180074053A1 (priority 2016, published 2018)
Non-standard residues stand in square brackets, D forms with d. No end group written: not given here.

Assays:
STC-1 cells = assay: GLP-1 secretion from STC-1 cells (ELISA); format: cell-based, mouse; conditions: 2 hours, DMEM without serum and glucose; FIG. 3
Method: The pathways and sites of action of H89 and U73122 are graphically represented in FIG. 2.
Supernatants were collected for GLP-1 measurement. and the GLP-1 concentration was measured using a total GLP-1 (7-36 and 9-36) ELISA kit according to manufacturer's instruction (Alpco. Salem, N.H.).

eNOS = eNOS mRNA expression in HUVEC; format: cell-based, human; conditions: FIG. 15
Excerpt: It has been shown that activation of MRGD by alamandine plays an important role in vasodilation by increasing nitric oxide (NO) production. NO produced by the endothelium is an important protective molecule in the vasculature and is mainly generated by the enzyme endothelial NO synthase (eNOS) in blood vessels. Enhancing the expression of eNOS has been considered as possible therapeutic strategy for reducing cardiovascular risk.

HEK293T cells = conditions: 0.0037-0.1 mM; FIG. 4
Method: Real-time Ca2+ flux assays. To further validate the GPCRProfiler results, we established a real-time Ca2+ flux assay using a FlexStation 3 Microplate Reader (Molecular Devices). […] The Fluo-4 Direct™ Calcium Assay Kits (Life Technologies), which allows direct addition to wells containing cells growing in culture media without the requirement of media removal or a wash step, is used to monitor Ca2+ flux in cells according to the manufacturer's protocol. Briefly, HEK293T cells are plated and cultured in 96-well microplates to near confluence. The microplates containing cells are removed from the incubator and an equal volume of 2× Fluo-4 Direct™ calcium reagent loading solution is added directly to wells containing cells in culture medium. The plates are incubated for 30 minutes at 37° C. and 30 minutes at room temperature. Then the plates (no need to remove the medium or Fluo-4 Direct™ calcium reagent) are placed on FlexStation 3 with settings appropriate for excitation at 494 nm and emission at 516 nm. FlexStation 3 can directly transfer reagents from 96-well source plates to a read plate one column at a time. […] Shaded shapes are negative controls.

MCHR1 = MCHR1 (UniProt Q99705 1-353, limits assumed); assay: cell-based or functional assay
Sequence of MCHR1 (Q99705 whole entry): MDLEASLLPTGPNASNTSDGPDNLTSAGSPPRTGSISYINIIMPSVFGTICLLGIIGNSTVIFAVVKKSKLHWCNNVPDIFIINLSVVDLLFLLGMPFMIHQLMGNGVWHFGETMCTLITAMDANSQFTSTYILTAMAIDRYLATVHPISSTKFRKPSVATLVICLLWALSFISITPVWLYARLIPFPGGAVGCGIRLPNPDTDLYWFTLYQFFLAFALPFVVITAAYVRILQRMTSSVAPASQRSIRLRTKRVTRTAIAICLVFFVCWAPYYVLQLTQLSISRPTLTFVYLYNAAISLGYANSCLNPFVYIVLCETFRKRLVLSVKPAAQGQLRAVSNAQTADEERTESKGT

MRGX1 = MRGX1 (UniProt Q96LB2 1-322, limits assumed); assay: cell-based or functional assay
Sequence of MRGX1 (Q96LB2 whole entry): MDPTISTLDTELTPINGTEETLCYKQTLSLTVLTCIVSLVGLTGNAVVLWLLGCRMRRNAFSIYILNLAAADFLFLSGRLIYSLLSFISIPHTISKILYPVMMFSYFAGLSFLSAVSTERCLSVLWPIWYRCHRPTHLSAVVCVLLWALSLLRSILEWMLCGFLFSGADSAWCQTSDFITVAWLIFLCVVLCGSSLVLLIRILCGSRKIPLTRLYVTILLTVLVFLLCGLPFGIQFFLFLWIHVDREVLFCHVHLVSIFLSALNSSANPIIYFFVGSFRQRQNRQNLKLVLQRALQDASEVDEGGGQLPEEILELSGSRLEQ

MRGX2 = biological target: T1, MRGX2 (UniProt Q96LB1 1-330, limits assumed); assay: cell-based or functional assay
T1 sequence (looked up): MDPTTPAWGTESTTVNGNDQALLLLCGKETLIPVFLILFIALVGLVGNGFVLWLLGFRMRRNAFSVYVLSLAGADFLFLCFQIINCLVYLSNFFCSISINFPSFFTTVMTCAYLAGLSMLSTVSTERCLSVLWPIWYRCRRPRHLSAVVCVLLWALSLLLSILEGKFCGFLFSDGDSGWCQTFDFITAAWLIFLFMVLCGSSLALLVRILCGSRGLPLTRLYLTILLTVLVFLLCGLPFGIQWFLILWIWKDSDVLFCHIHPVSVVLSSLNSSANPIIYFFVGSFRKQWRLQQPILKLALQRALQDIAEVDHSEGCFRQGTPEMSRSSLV

NK1 = NK1 (UniProt P25103 1-407); assay: cell-based or functional assay
Sequence of NK1 (P25103 whole entry): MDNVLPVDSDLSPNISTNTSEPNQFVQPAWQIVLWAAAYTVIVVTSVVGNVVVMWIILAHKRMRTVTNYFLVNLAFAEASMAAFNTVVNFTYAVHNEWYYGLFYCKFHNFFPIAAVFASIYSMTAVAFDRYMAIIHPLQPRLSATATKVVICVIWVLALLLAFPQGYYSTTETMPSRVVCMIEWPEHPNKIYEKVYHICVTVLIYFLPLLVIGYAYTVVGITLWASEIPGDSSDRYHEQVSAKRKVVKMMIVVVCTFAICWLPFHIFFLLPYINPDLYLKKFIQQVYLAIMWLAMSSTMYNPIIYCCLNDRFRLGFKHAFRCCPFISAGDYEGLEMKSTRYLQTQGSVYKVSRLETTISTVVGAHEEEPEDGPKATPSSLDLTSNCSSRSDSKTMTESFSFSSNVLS

NK2 = biological target: T2, NK2 (UniProt P21452 1-398); assay: cell-based or functional assay
T2 sequence (looked up): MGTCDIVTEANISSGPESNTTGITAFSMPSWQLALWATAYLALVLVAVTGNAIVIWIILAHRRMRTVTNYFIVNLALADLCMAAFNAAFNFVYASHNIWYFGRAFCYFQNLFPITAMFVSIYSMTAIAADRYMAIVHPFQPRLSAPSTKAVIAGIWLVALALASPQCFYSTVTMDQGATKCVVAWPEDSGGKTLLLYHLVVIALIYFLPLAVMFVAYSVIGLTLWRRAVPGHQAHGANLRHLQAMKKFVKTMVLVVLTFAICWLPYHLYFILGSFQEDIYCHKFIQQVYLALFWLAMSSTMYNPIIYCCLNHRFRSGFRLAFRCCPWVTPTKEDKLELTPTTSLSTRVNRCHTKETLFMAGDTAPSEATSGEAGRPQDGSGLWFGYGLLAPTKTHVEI

NMUR2 = NMUR2 (UniProt Q9GZQ4 1-415, limits assumed); assay: cell-based or functional assay
Sequence of NMUR2 (Q9GZQ4 whole entry): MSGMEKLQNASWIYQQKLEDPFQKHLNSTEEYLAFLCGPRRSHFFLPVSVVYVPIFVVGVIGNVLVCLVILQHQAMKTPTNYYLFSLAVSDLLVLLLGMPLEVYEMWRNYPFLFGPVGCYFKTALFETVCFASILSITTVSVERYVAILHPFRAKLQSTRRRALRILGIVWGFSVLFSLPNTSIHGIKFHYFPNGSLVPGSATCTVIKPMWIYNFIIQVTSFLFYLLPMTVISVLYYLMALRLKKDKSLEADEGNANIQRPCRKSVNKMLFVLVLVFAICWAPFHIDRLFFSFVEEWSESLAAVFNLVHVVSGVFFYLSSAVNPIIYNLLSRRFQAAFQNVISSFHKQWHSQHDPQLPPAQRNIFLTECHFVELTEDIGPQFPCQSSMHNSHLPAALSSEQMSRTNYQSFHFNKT

NOP = NOP (UniProt P41146 1-370); assay: cell-based or functional assay
Sequence of NOP (P41146 whole entry): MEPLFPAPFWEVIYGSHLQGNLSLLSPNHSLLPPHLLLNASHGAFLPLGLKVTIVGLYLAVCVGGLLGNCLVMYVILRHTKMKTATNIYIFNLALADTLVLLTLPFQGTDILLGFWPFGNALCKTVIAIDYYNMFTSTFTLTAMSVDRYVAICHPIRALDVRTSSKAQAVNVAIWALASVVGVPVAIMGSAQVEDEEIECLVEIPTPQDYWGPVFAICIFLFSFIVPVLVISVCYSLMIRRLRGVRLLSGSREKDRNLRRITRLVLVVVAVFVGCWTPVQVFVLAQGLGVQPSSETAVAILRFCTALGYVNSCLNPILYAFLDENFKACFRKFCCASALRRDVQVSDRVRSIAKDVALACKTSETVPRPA

[1] = biological target: MAS-related G-protein-coupled receptor member D (MRGD) (human, UniProt Q8TDS7 1-321); assay: cell-based or functional assay
Sequence of MAS-related G-protein-coupled receptor member D (MRGD) (Q8TDS7 whole entry): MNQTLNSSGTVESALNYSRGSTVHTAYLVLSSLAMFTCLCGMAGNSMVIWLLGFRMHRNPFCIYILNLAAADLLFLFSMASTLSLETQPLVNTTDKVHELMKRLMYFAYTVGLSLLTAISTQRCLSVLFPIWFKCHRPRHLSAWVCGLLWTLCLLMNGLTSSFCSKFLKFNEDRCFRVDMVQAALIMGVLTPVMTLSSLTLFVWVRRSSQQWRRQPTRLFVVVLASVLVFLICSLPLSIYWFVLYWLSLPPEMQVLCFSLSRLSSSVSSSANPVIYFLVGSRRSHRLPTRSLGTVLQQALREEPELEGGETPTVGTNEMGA

[2] = biological target: GPCR 109a, the nicotinic acid receptor (human, UniProt Q8TDS4 1-363); assay: cell-based or functional assay
Sequence of GPCR 109a, the nicotinic acid receptor (Q8TDS4 whole entry): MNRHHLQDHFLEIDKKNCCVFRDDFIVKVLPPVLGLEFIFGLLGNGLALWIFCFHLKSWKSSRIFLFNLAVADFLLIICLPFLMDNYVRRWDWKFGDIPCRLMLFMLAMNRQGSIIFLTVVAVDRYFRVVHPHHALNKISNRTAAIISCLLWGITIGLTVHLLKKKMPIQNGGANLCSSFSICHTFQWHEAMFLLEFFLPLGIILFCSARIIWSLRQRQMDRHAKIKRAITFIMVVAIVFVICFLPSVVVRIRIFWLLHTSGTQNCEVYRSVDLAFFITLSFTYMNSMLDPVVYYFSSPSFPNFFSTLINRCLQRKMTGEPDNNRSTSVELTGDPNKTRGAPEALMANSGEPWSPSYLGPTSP

MC2 = MC2 (UniProt Q01718 1-297); assay: cell-based or functional assay
Sequence of MC2 (Q01718 whole entry): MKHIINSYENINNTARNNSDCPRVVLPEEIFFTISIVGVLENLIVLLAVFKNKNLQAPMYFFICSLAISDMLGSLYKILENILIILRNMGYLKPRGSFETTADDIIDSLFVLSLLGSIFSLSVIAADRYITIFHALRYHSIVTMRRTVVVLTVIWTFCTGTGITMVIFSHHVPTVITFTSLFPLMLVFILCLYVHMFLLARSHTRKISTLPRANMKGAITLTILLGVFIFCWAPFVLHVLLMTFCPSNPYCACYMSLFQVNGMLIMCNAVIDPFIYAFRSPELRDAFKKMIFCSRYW

MC4 = MC4 (UniProt P32245 1-332); assay: cell-based or functional assay
Sequence of MC4 (P32245 whole entry): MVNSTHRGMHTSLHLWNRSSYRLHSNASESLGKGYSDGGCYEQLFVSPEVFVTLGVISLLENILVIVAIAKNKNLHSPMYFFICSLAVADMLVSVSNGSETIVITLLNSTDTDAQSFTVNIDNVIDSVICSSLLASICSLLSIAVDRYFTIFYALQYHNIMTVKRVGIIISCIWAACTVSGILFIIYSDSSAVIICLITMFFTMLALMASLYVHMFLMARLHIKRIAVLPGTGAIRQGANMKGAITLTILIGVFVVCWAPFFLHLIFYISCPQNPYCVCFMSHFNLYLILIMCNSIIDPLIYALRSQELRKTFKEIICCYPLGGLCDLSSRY

MC5 = MC5 (UniProt P33032 1-325); assay: cell-based or functional assay
Sequence of MC5 (P33032 whole entry): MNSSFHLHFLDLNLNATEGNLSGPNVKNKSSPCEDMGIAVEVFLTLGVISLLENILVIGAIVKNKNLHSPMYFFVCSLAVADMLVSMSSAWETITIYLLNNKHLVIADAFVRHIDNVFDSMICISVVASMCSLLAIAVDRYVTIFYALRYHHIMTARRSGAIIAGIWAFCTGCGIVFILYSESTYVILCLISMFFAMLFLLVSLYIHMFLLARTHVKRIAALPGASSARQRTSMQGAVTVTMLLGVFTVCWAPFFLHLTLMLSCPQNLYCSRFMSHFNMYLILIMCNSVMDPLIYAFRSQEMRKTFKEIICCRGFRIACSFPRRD

CC(C)C[C@@H](NC(=O)CNC(=O)CN)C(=O)O
release of GLP-1 by STC-1 cells (STC-1 cells): stimulated significant release of GLP-1 | eNOS mRNA levels (eNOS; 30 minutes, vs control): the same | eNOS expression (eNOS; 60 minutes): increased eNOS expression | eNOS expression (eNOS; 120 minutes): increased eNOS expression | real-time Ca2+ flux (HEK293T cells): stimulate greater Ca^2+ flux

Gly-Gly-[dL] [DT-110, tripeptide glycine-glycine-D-leucine (GGdL)]
percent activation (calcium flux, GPCRProfiler), DT-110 @ 1.25 mM, Avg. (MCHR1): 0.4% | percent activation (calcium flux, GPCRProfiler), DT-110 @ 1.25 mM, n1 (MCHR1): 0.2% | percent activation (calcium flux, GPCRProfiler), DT-110 @ 1.25 mM, n2 (MCHR1): 0.7% | percent activation (calcium flux, GPCRProfiler), DT-110 @ 12.5 mM, Avg. (MCHR1): -0.1% | percent activation (calcium flux, GPCRProfiler), DT-110 @ 12.5 mM, n1 (MCHR1): -0.5% | percent activation (calcium flux, GPCRProfiler), DT-110 @ 12.5 mM, n2 (MCHR1): 0.3% | percent activation (calcium flux, GPCRProfiler), DT-110 @ 1.25 mM, Avg. (MRGX1): -1.9% | percent activation (calcium flux, GPCRProfiler), DT-110 @ 1.25 mM, n1 (MRGX1): -1.3% | percent activation (calcium flux, GPCRProfiler), DT-110 @ 1.25 mM, n2 (MRGX1): -2.5% | percent activation (calcium flux, GPCRProfiler), DT-110 @ 12.5 mM, Avg. (MRGX1): -6.6% | percent activation (calcium flux, GPCRProfiler), DT-110 @ 12.5 mM, n1 (MRGX1): -6.7% | percent activation (calcium flux, GPCRProfiler), DT-110 @ 12.5 mM, n2 (MRGX1): -6.6% | percent activation (calcium flux, GPCRProfiler), DT-110 @ 1.25 mM, Avg. (MRGX2): -0.2% | percent activation (calcium flux, GPCRProfiler), DT-110 @ 1.25 mM, n1 (MRGX2): 0% | percent activation (calcium flux, GPCRProfiler), DT-110 @ 1.25 mM, n2 (MRGX2): -0.4% | percent activation (calcium flux, GPCRProfiler), DT-110 @ 12.5 mM, Avg. (MRGX2): 0% | percent activation (calcium flux, GPCRProfiler), DT-110 @ 12.5 mM, n1 (MRGX2): 0.4% | percent activation (calcium flux, GPCRProfiler), DT-110 @ 12.5 mM, n2 (MRGX2): -0.4% | percent activation (calcium flux, GPCRProfiler), DT-110 @ 1.25 mM, Avg. (NK1): -0.9% | percent activation (calcium flux, GPCRProfiler), DT-110 @ 1.25 mM, n1 (NK1): -1% | percent activation (calcium flux, GPCRProfiler), DT-110 @ 1.25 mM, n2 (NK1): -0.9% | percent activation (calcium flux, GPCRProfiler), DT-110 @ 12.5 mM, Avg. (NK1): -1.1% | percent activation (calcium flux, GPCRProfiler), DT-110 @ 12.5 mM, n1 (NK1): -1% | percent activation (calcium flux, GPCRProfiler), DT-110 @ 12.5 mM, n2 (NK1): -1.1% | percent activation (calcium flux, GPCRProfiler), DT-110 @ 1.25 mM, Avg. (NK2): -9.5% | percent activation (calcium flux, GPCRProfiler), DT-110 @ 1.25 mM, n1 (NK2): -9.4% | percent activation (calcium flux, GPCRProfiler), DT-110 @ 1.25 mM, n2 (NK2): -9.6% | percent activation (calcium flux, GPCRProfiler), DT-110 @ 12.5 mM, Avg. (NK2): -9.6% | percent activation (calcium flux, GPCRProfiler), DT-110 @ 12.5 mM, n1 (NK2): -9.5% | percent activation (calcium flux, GPCRProfiler), DT-110 @ 12.5 mM, n2 (NK2): -9.7% | percent activation (calcium flux, GPCRProfiler), DT-110 @ 1.25 mM, Avg. (NMUR2): 2.4% | percent activation (calcium flux, GPCRProfiler), DT-110 @ 1.25 mM, n1 (NMUR2): 0.9% | percent activation (calcium flux, GPCRProfiler), DT-110 @ 1.25 mM, n2 (NMUR2): 3.9% | percent activation (calcium flux, GPCRProfiler), DT-110 @ 12.5 mM, Avg. (NMUR2): -0.9% | percent activation (calcium flux, GPCRProfiler), DT-110 @ 12.5 mM, n1 (NMUR2): 0.4% | percent activation (calcium flux, GPCRProfiler), DT-110 @ 12.5 mM, n2 (NMUR2): -2.2% | percent activation (calcium flux, GPCRProfiler), DT-110 @ 1.25 mM, Avg. (NOP): -0.1% | percent activation (calcium flux, GPCRProfiler), DT-110 @ 1.25 mM, n1 (NOP): -7.8% | percent activation (calcium flux, GPCRProfiler), DT-110 @ 1.25 mM, n2 (NOP): 7.6% | percent activation (calcium flux, GPCRProfiler), DT-110 @ 12.5 mM, Avg. (NOP): -2.3% | percent activation (calcium flux, GPCRProfiler), DT-110 @ 12.5 mM, n1 (NOP): 3.4% | percent activation (calcium flux, GPCRProfiler), DT-110 @ 12.5 mM, n2 (NOP): -8% | percent activation (calcium flux, GPCRProfiler), DT-110 @ 1.25 mM, Avg. [1]: 69.2% | percent activation (calcium flux, GPCRProfiler), DT-110 @ 1.25 mM, n1 [1]: 76.5% | percent activation (calcium flux, GPCRProfiler), DT-110 @ 1.25 mM, n2 [1]: 62% | percent activation (calcium flux, GPCRProfiler), DT-110 @ 12.5 mM, Avg. [1]: 64.5% | percent activation (calcium flux, GPCRProfiler), DT-110 @ 12.5 mM, n1 [1]: 60.7% | percent activation (calcium flux, GPCRProfiler), DT-110 @ 12.5 mM, n2 [1]: 68.3% | percent activation (calcium flux, GPCRProfiler), DT-110 @ 1.25 mM, Avg. [2]: -8.1% | percent activation (calcium flux, GPCRProfiler), DT-110 @ 1.25 mM, n1 [2]: -8.1% | percent activation (calcium flux, GPCRProfiler), DT-110 @ 1.25 mM, n2 [2]: -8% | percent activation (calcium flux, GPCRProfiler), DT-110 @ 12.5 mM, Avg. [2]: 54.3% | percent activation (calcium flux, GPCRProfiler), DT-110 @ 12.5 mM, n1 [2]: 52.9% | percent activation (calcium flux, GPCRProfiler), DT-110 @ 12.5 mM, n2 [2]: 55.7% | percent activation (calcium flux, GPCRProfiler), DT-110 @ 1.25 mM, Avg. (MC2): -0.7% | percent activation (calcium flux, GPCRProfiler), DT-110 @ 1.25 mM, n1 (MC2): 0.6% | percent activation (calcium flux, GPCRProfiler), DT-110 @ 1.25 mM, n2 (MC2): -2% | percent activation (calcium flux, GPCRProfiler), DT-110 @ 12.5 mM, Avg. (MC2): -1% | percent activation (calcium flux, GPCRProfiler), DT-110 @ 12.5 mM, n1 (MC2): -1% | percent activation (calcium flux, GPCRProfiler), DT-110 @ 12.5 mM, n2 (MC2): -0.9% | percent activation (calcium flux, GPCRProfiler), DT-110 @ 1.25 mM, Avg. (MC4): -0.5% | percent activation (calcium flux, GPCRProfiler), DT-110 @ 1.25 mM, n1 (MC4): 3% | percent activation (calcium flux, GPCRProfiler), DT-110 @ 1.25 mM, n2 (MC4): -4% | percent activation (calcium flux, GPCRProfiler), DT-110 @ 12.5 mM, Avg. (MC4): 3.4% | percent activation (calcium flux, GPCRProfiler), DT-110 @ 12.5 mM, n1 (MC4): -0.2% | percent activation (calcium flux, GPCRProfiler), DT-110 @ 12.5 mM, n2 (MC4): 7% | percent activation (calcium flux, GPCRProfiler), DT-110 @ 1.25 mM, Avg. (MC5): 0% | percent activation (calcium flux, GPCRProfiler), DT-110 @ 1.25 mM, n1 (MC5): 0.7% | percent activation (calcium flux, GPCRProfiler), DT-110 @ 1.25 mM, n2 (MC5): -0.8% | percent activation (calcium flux, GPCRProfiler), DT-110 @ 12.5 mM, Avg. (MC5): -0.3% | percent activation (calcium flux, GPCRProfiler), DT-110 @ 12.5 mM, n1 (MC5): -0.6% | percent activation (calcium flux, GPCRProfiler), DT-110 @ 12.5 mM, n2 (MC5): 0%
